Experimental data published in the RNAGym collection of RNA variant scans (doi:10.1021/acssynbio.7b00057).

B1: Pistol ribozyme (parent)
chain: GGGUCGUUGUUCCAUAAUCGCGUGGAUAUGGCACGCAAGUUUCUACCGGGCACCGUAAAUGUCCGACUGGAGCCGUUCGGGCGGCUAUAAACAGACCUCAGGCCCGAAGCGUGGCGGCACCUGCCGCCGGUGGUAAAAAAGAUCGGAAGAGCACACGUCU

Variants of: B1
Assay: aptazyme ON/OFF ratio, guanine; higher = stronger switching; co-transcriptional cleavage with and without guanine

Row | Variant | aptazyme ON/OFF ratio
1 | GGGUCGCGCUUUGAUAAUCGCGUGGAUAUGGCACGCAAGUUUCUACCGGGCACCGUAAAUGUCCGACUGGAGCCGUUCGGGCGGCUAUAAACAGACCUCAGGCCCGAAGCGUGGCGGCACCUGCCGCCGGUGGUAAAAAAGAUCGGAAGAGCACACGUCU [U7C U8G G9C C12U C13G] | 1.07
2 | GGGUCGCGCUUUAAUAAUCGCGUGGAUAUGGCACGCAAGUUUCUACCGGGCACCGUAAAUGUCCGACUGGAGCCGUUCGGGCGGCUAUAAACAGACCUCAGGCCCGAAGCGUGGCGGCACCUGCCGCCGGUGGUAAAAAAGAUCGGAAGAGCACACGUCU [U7C U8G G9C C12U C13A] | 1.16
3 | GGGUCGCGCUUUUAUAAUCGCGUGGAUAUGGCACGCAAGUUUCUACCGGGCACCGUAAAUGUCCGACUGGAGCCGUUCGGGCGGCUAUAAACAGACCUCAGGCCCGAAGCGUGGCGGCACCUGCCGCCGGUGGUAAAAAAGAUCGGAAGAGCACACGUCU [U7C U8G G9C C12U C13U] | 1.2
4 | GGGUCGCGCAAUAAUAAUCGCGUGGAUAUGGCACGCAAGUUUCUACCGGGCACCGUAAAUGUCCGACUGGAGCCGUUCGGGCGGCUAUAAACAGACCUCAGGCCCGAAGCGUGGCGGCACCUGCCGCCGGUGGUAAAAAAGAUCGGAAGAGCACACGUCU [U7C U8G G9C U10A U11A C12U C13A] | 1.21
5 | GGGUCGCGCAAUGAUAAUCGCGUGGAUAUGGCACGCAAGUUUCUACCGGGCACCGUAAAUGUCCGACUGGAGCCGUUCGGGCGGCUAUAAACAGACCUCAGGCCCGAAGCGUGGCGGCACCUGCCGCCGGUGGUAAAAAAGAUCGGAAGAGCACACGUCU [U7C U8G G9C U10A U11A C12U C13G] | 1.17
6 | GGGUCGCGCAAUUAUAAUCGCGUGGAUAUGGCACGCAAGUUUCUACCGGGCACCGUAAAUGUCCGACUGGAGCCGUUCGGGCGGCUAUAAACAGACCUCAGGCCCGAAGCGUGGCGGCACCUGCCGCCGGUGGUAAAAAAGAUCGGAAGAGCACACGUCU [U7C U8G G9C U10A U11A C12U C13U] | 1.24
7 | GGGUCGCGCAACAAUAAUCGCGUGGAUAUGGCACGCAAGUUUCUACCGGGCACCGUAAAUGUCCGACUGGAGCCGUUCGGGCGGCUAUAAACAGACCUCAGGCCCGAAGCGUGGCGGCACCUGCCGCCGGUGGUAAAAAAGAUCGGAAGAGCACACGUCU [U7C U8G G9C U10A U11A C13A] | 1.15
8 | GGGUCGCGCAUGUAUAAUCGCGUGGAUAUGGCACGCAAGUUUCUACCGGGCACCGUAAAUGUCCGACUGGAGCCGUUCGGGCGGCUAUAAACAGACCUCAGGCCCGAAGCGUGGCGGCACCUGCCGCCGGUGGUAAAAAAGAUCGGAAGAGCACACGUCU [U7C U8G G9C U10A C12G C13U] | 1.19
9 | GGGUCGCGCAUGAAUAAUCGCGUGGAUAUGGCACGCAAGUUUCUACCGGGCACCGUAAAUGUCCGACUGGAGCCGUUCGGGCGGCUAUAAACAGACCUCAGGCCCGAAGCGUGGCGGCACCUGCCGCCGGUGGUAAAAAAGAUCGGAAGAGCACACGUCU [U7C U8G G9C U10A C12G C13A] | 1.2
10 | GGGUCGCGCAUGGAUAAUCGCGUGGAUAUGGCACGCAAGUUUCUACCGGGCACCGUAAAUGUCCGACUGGAGCCGUUCGGGCGGCUAUAAACAGACCUCAGGCCCGAAGCGUGGCGGCACCUGCCGCCGGUGGUAAAAAAGAUCGGAAGAGCACACGUCU [U7C U8G G9C U10A C12G C13G] | 1.2
11 | GGGUCGCGCAUCAAUAAUCGCGUGGAUAUGGCACGCAAGUUUCUACCGGGCACCGUAAAUGUCCGACUGGAGCCGUUCGGGCGGCUAUAAACAGACCUCAGGCCCGAAGCGUGGCGGCACCUGCCGCCGGUGGUAAAAAAGAUCGGAAGAGCACACGUCU [U7C U8G G9C U10A C13A] | 1.14
12 | GGGUCGCGCAUCUAUAAUCGCGUGGAUAUGGCACGCAAGUUUCUACCGGGCACCGUAAAUGUCCGACUGGAGCCGUUCGGGCGGCUAUAAACAGACCUCAGGCCCGAAGCGUGGCGGCACCUGCCGCCGGUGGUAAAAAAGAUCGGAAGAGCACACGUCU [U7C U8G G9C U10A C13U] | 1.15
13 | GGGUCGCGCAUCGAUAAUCGCGUGGAUAUGGCACGCAAGUUUCUACCGGGCACCGUAAAUGUCCGACUGGAGCCGUUCGGGCGGCUAUAAACAGACCUCAGGCCCGAAGCGUGGCGGCACCUGCCGCCGGUGGUAAAAAAGAUCGGAAGAGCACACGUCU [U7C U8G G9C U10A C13G] | 1.08
14 | GGGUCGCGCAUUCAUAAUCGCGUGGAUAUGGCACGCAAGUUUCUACCGGGCACCGUAAAUGUCCGACUGGAGCCGUUCGGGCGGCUAUAAACAGACCUCAGGCCCGAAGCGUGGCGGCACCUGCCGCCGGUGGUAAAAAAGAUCGGAAGAGCACACGUCU [U7C U8G G9C U10A C12U] | 1.17
15 | GGGUCGCGCAUACAUAAUCGCGUGGAUAUGGCACGCAAGUUUCUACCGGGCACCGUAAAUGUCCGACUGGAGCCGUUCGGGCGGCUAUAAACAGACCUCAGGCCCGAAGCGUGGCGGCACCUGCCGCCGGUGGUAAAAAAGAUCGGAAGAGCACACGUCU [U7C U8G G9C U10A C12A] | 1.2
16 | GGGUCGCGCAUGCAUAAUCGCGUGGAUAUGGCACGCAAGUUUCUACCGGGCACCGUAAAUGUCCGACUGGAGCCGUUCGGGCGGCUAUAAACAGACCUCAGGCCCGAAGCGUGGCGGCACCUGCCGCCGGUGGUAAAAAAGAUCGGAAGAGCACACGUCU [U7C U8G G9C U10A C12G] | 1.14
17 | GGGUCGCGCAAGGAUAAUCGCGUGGAUAUGGCACGCAAGUUUCUACCGGGCACCGUAAAUGUCCGACUGGAGCCGUUCGGGCGGCUAUAAACAGACCUCAGGCCCGAAGCGUGGCGGCACCUGCCGCCGGUGGUAAAAAAGAUCGGAAGAGCACACGUCU [U7C U8G G9C U10A U11A C12G C13G] | 1.18
18 | GGGUCGCGCAAGAAUAAUCGCGUGGAUAUGGCACGCAAGUUUCUACCGGGCACCGUAAAUGUCCGACUGGAGCCGUUCGGGCGGCUAUAAACAGACCUCAGGCCCGAAGCGUGGCGGCACCUGCCGCCGGUGGUAAAAAAGAUCGGAAGAGCACACGUCU [U7C U8G G9C U10A U11A C12G C13A] | 1.12

Row | Variant | aptazyme ON/OFF ratio
19 | GGGUCGCGCAAGUAUAAUCGCGUGGAUAUGGCACGCAAGUUUCUACCGGGCACCGUAAAUGUCCGACUGGAGCCGUUCGGGCGGCUAUAAACAGACCUCAGGCCCGAAGCGUGGCGGCACCUGCCGCCGGUGGUAAAAAAGAUCGGAAGAGCACACGUCU [U7C U8G G9C U10A U11A C12G C13U] | 1.17
20 | GGGUCGCGCAAGCAUAAUCGCGUGGAUAUGGCACGCAAGUUUCUACCGGGCACCGUAAAUGUCCGACUGGAGCCGUUCGGGCGGCUAUAAACAGACCUCAGGCCCGAAGCGUGGCGGCACCUGCCGCCGGUGGUAAAAAAGAUCGGAAGAGCACACGUCU [U7C U8G G9C U10A U11A C12G] | 1.14
21 | GGGUCGCGCAAACAUAAUCGCGUGGAUAUGGCACGCAAGUUUCUACCGGGCACCGUAAAUGUCCGACUGGAGCCGUUCGGGCGGCUAUAAACAGACCUCAGGCCCGAAGCGUGGCGGCACCUGCCGCCGGUGGUAAAAAAGAUCGGAAGAGCACACGUCU [U7C U8G G9C U10A U11A C12A] | 1.22
22 | GGGUCGCGCAAUCAUAAUCGCGUGGAUAUGGCACGCAAGUUUCUACCGGGCACCGUAAAUGUCCGACUGGAGCCGUUCGGGCGGCUAUAAACAGACCUCAGGCCCGAAGCGUGGCGGCACCUGCCGCCGGUGGUAAAAAAGAUCGGAAGAGCACACGUCU [U7C U8G G9C U10A U11A C12U] | 1.26
23 | GGGUCGCGCUUCGAUAAUCGCGUGGAUAUGGCACGCAAGUUUCUACCGGGCACCGUAAAUGUCCGACUGGAGCCGUUCGGGCGGCUAUAAACAGACCUCAGGCCCGAAGCGUGGCGGCACCUGCCGCCGGUGGUAAAAAAGAUCGGAAGAGCACACGUCU [U7C U8G G9C C13G] | 1.04
24 | GGGUCGCGCUUCUAUAAUCGCGUGGAUAUGGCACGCAAGUUUCUACCGGGCACCGUAAAUGUCCGACUGGAGCCGUUCGGGCGGCUAUAAACAGACCUCAGGCCCGAAGCGUGGCGGCACCUGCCGCCGGUGGUAAAAAAGAUCGGAAGAGCACACGUCU [U7C U8G G9C C13U] | 1.04
25 | GGGUCGCGCUUCAAUAAUCGCGUGGAUAUGGCACGCAAGUUUCUACCGGGCACCGUAAAUGUCCGACUGGAGCCGUUCGGGCGGCUAUAAACAGACCUCAGGCCCGAAGCGUGGCGGCACCUGCCGCCGGUGGUAAAAAAGAUCGGAAGAGCACACGUCU [U7C U8G G9C C13A] | 1.06
26 | GGGUCGCGCAAAAAUAAUCGCGUGGAUAUGGCACGCAAGUUUCUACCGGGCACCGUAAAUGUCCGACUGGAGCCGUUCGGGCGGCUAUAAACAGACCUCAGGCCCGAAGCGUGGCGGCACCUGCCGCCGGUGGUAAAAAAGAUCGGAAGAGCACACGUCU [U7C U8G G9C U10A U11A C12A C13A] | 1.13
27 | GGGUCGCGCAAAUAUAAUCGCGUGGAUAUGGCACGCAAGUUUCUACCGGGCACCGUAAAUGUCCGACUGGAGCCGUUCGGGCGGCUAUAAACAGACCUCAGGCCCGAAGCGUGGCGGCACCUGCCGCCGGUGGUAAAAAAGAUCGGAAGAGCACACGUCU [U7C U8G G9C U10A U11A C12A C13U] | 1.26
28 | GGGUCGCGCAAAGAUAAUCGCGUGGAUAUGGCACGCAAGUUUCUACCGGGCACCGUAAAUGUCCGACUGGAGCCGUUCGGGCGGCUAUAAACAGACCUCAGGCCCGAAGCGUGGCGGCACCUGCCGCCGGUGGUAAAAAAGAUCGGAAGAGCACACGUCU [U7C U8G G9C U10A U11A C12A C13G] | 1.15
29 | GGGUCGCGCAUCCAUAAUCGCGUGGAUAUGGCACGCAAGUUUCUACCGGGCACCGUAAAUGUCCGACUGGAGCCGUUCGGGCGGCUAUAAACAGACCUCAGGCCCGAAGCGUGGCGGCACCUGCCGCCGGUGGUAAAAAAGAUCGGAAGAGCACACGUCU [U7C U8G G9C U10A] | 1.28
30 | GGGUCGCGCAUUUAUAAUCGCGUGGAUAUGGCACGCAAGUUUCUACCGGGCACCGUAAAUGUCCGACUGGAGCCGUUCGGGCGGCUAUAAACAGACCUCAGGCCCGAAGCGUGGCGGCACCUGCCGCCGGUGGUAAAAAAGAUCGGAAGAGCACACGUCU [U7C U8G G9C U10A C12U C13U] | 1.05
31 | GGGUCGCGCAUUAAUAAUCGCGUGGAUAUGGCACGCAAGUUUCUACCGGGCACCGUAAAUGUCCGACUGGAGCCGUUCGGGCGGCUAUAAACAGACCUCAGGCCCGAAGCGUGGCGGCACCUGCCGCCGGUGGUAAAAAAGAUCGGAAGAGCACACGUCU [U7C U8G G9C U10A C12U C13A] | 1.21
32 | GGGUCGCGCAUUGAUAAUCGCGUGGAUAUGGCACGCAAGUUUCUACCGGGCACCGUAAAUGUCCGACUGGAGCCGUUCGGGCGGCUAUAAACAGACCUCAGGCCCGAAGCGUGGCGGCACCUGCCGCCGGUGGUAAAAAAGAUCGGAAGAGCACACGUCU [U7C U8G G9C U10A C12U C13G] | 1.13
33 | GGGUCGCGCAACCAUAAUCGCGUGGAUAUGGCACGCAAGUUUCUACCGGGCACCGUAAAUGUCCGACUGGAGCCGUUCGGGCGGCUAUAAACAGACCUCAGGCCCGAAGCGUGGCGGCACCUGCCGCCGGUGGUAAAAAAGAUCGGAAGAGCACACGUCU [U7C U8G G9C U10A U11A] | 1.3
34 | GGGUCGCGCAUAGAUAAUCGCGUGGAUAUGGCACGCAAGUUUCUACCGGGCACCGUAAAUGUCCGACUGGAGCCGUUCGGGCGGCUAUAAACAGACCUCAGGCCCGAAGCGUGGCGGCACCUGCCGCCGGUGGUAAAAAAGAUCGGAAGAGCACACGUCU [U7C U8G G9C U10A C12A C13G] | 1.1
35 | GGGUCGCGCAUAUAUAAUCGCGUGGAUAUGGCACGCAAGUUUCUACCGGGCACCGUAAAUGUCCGACUGGAGCCGUUCGGGCGGCUAUAAACAGACCUCAGGCCCGAAGCGUGGCGGCACCUGCCGCCGGUGGUAAAAAAGAUCGGAAGAGCACACGUCU [U7C U8G G9C U10A C12A C13U] | 1.18
36 | GGGUCGCGCAUAAAUAAUCGCGUGGAUAUGGCACGCAAGUUUCUACCGGGCACCGUAAAUGUCCGACUGGAGCCGUUCGGGCGGCUAUAAACAGACCUCAGGCCCGAAGCGUGGCGGCACCUGCCGCCGGUGGUAAAAAAGAUCGGAAGAGCACACGUCU [U7C U8G G9C U10A C12A C13A] | 1.22
